Assay results as given in US20030148921.

B1: bovine activated protein C (protein)
chain: ANSFLEELRPGNVERECSEEVCEFEEAREIFQNTEDTMAFWSFYSDGDQCEDRPSGSPCDLPCCGRGKCIDGLGGFRCDCAEGWEGRFCLHEVRFSNCSAENGGCAHYCMEEEGRRHCSCAPGYRLEDDHQLCVSKVTFPCGRLGKRMEKKRKTLKRDTNQVDQKDQLDPRIVDGQEAGWGESPWQAVLLDSKKKLVCGAVLIHVSWVLTVAHCLDSRKKLIVRLGEYDMRRWESWEVDLDIKEVIIHPNYTKSTSDNDIALLRLAKPATLSQTIVPICLPDSGLSERKLTQVGQETVVTGWGYRDETKRNRTFVLSFIKVPVVPYNACVHAMENKISENMLCAGILGDPRDACEGDSGGPMVTFFRGTWFLVGLVSWGEGCGRLYNYGVYTKVSRYLDWIYGHIKAQEAPLESQVP
B2: human leukocyte elastase (protein)
chain: IVGGRRARPHAWPFMVSLQLRGGHFCGATLIAPNFVMSAAHCVANVNVRAVRVVLGAHNLSRREPTRQVFAVQRIFENGYDPVNLLNDIVILQLNGSATINANVQVAQLPAQGRRLGNGVQCLAMGWGLLGRNRGIASVLQELNVTVVTSLCRRSNVCTLVRGRQAGVCFGDSGSPLVCNGLIHGIASFVRGGCASGLYPDAFAPVAQFVNWIDSIIQ
B3: human single-chain tPA (protein)
chain: SYQVICRDEKTQMIYQQHQSWLRPVLRSNRVEYCWCNSGRAQCHSVPVKSCSEPRCFNGGTCQQALYFSDFVCQCPEGFAGKCCEIDTRATCYEDQGISYRGTWSTAESGAECTNWNSSALAQKPYSGRRPDAIRLGLGNHNYCRNPDRDSKPWCYVFKAGKYSSEFCSTPACSEGNSDCYFGNGSAYRGTHSLTESGASCLPWNSMILIGKVYTAQNPSAQALGLGKHNYCRNPDGDAKPWCHVLKNRRLTWEYCDVPSCSTCGLRQYSQPQFRIKGGLFADIASHPWQAAIFAKHRRSPGERFLCGGILISSCWILSAAHCFQERFPPHHLTVILGRTYRVVPGEEEQKFEVEKYIVHKEFDDDTYDNDIALLQLKSDSSRCAQESSVVRTVCLPPADLQLPDWTECELSGYGKHEALSPFYSERLKEAHVRLYPSSRCTSQHLLNRTVTDNMLCAGDTRSGGPQANLHDACQGDSGGPLVCLNDGRMTLVGIISWGLGCGQKDVPGVYTKVTNYLDWIRDNMRP
B4: human plasmin (protein)
chain: KVYLSECKTGNGKNYRGTMSKTKNGITCQKWSSTSPHRPRFSPATHPSEGLEENYCRNPDNDPQGPWCYTTDPEKRYDYCDILECEEECMHCSGENYDGKISKTMSGLECQAWDSQSPHAHGYIPSKFPNKNLKKNYCRNPDRELRPWCFTTDPNKRWELCDIPRCTTPPPSSGPTYQCLKGTGENYRGNVAVTVSGHTCQHWSAQTPHTHNRTPENFPCKNLDENYCRNPDGKRAPWCHTTNSQVRWEYCKIPSCDSSPVSTEQLAPTAPPELTPVVQDCYHGDGQSYRGTSSTTTTGKKCQSWSSMTPHRHQKTPENYPNAGLTMNYCRNPDADKGPWCFTTDPSVRWEYCNLKKCSGTEASVVAPPPVVLLPDVETPSEEDCMFGNGKGYRGKRATTVTGTPCQDWAAQEPHRHSIFTPETNPRAGLEKNYCRNPDGDVGGPWCYTTNPRKLYDYCDVPQCAAPSFDCGKPQVEPKKCPGRVVGGCVAHPHSWPWQVSLRTRFGMHFCGGTLISPEWVLTAAHCLEKSPRPSSYKVILGAHQEVNLEPHVQEIEVSRLFLEPTRKDIALLKLSSPAVITDKVIPACLPSPNYVVADRTECFITGWGETQGTFGAGLLKEAQLPVIENKVCNRYEFLNGRVQSTELCAGHLAGGTDSCQGDSGGPLVCFEKDKYILQGVTSWGLGCARPNKPGVYVRVSRFVTWIEGVMRNN

Tests used:
[1] = molecular target: galactosidase-PAR1 (GPAR1) fusion protein [β-galactosidase: P00722]
[2] = molecular target: activation site mutant fusion protein GPAR1^R45S
[3] = molecular target: GPAR3^K37S activation site mutant fusion protein
[4] = molecular target: GPAR4^R47S activation site mutant fusion protein
[5] = molecular target: GPAR2^R34S activation site mutant fusion protein
[6] = molecular target: galactosidase-PAR4 (GPAR4) fusion protein
[7] = molecular target: galactosidase-PAR2 (GPAR2) fusion protein
[8] = molecular target: galactosidase-PAR3 (GPAR3) fusion protein
Chain of galactosidase-PAR3 (GPAR3) fusion protein (chain, as listed by the source, chain 1 of 2): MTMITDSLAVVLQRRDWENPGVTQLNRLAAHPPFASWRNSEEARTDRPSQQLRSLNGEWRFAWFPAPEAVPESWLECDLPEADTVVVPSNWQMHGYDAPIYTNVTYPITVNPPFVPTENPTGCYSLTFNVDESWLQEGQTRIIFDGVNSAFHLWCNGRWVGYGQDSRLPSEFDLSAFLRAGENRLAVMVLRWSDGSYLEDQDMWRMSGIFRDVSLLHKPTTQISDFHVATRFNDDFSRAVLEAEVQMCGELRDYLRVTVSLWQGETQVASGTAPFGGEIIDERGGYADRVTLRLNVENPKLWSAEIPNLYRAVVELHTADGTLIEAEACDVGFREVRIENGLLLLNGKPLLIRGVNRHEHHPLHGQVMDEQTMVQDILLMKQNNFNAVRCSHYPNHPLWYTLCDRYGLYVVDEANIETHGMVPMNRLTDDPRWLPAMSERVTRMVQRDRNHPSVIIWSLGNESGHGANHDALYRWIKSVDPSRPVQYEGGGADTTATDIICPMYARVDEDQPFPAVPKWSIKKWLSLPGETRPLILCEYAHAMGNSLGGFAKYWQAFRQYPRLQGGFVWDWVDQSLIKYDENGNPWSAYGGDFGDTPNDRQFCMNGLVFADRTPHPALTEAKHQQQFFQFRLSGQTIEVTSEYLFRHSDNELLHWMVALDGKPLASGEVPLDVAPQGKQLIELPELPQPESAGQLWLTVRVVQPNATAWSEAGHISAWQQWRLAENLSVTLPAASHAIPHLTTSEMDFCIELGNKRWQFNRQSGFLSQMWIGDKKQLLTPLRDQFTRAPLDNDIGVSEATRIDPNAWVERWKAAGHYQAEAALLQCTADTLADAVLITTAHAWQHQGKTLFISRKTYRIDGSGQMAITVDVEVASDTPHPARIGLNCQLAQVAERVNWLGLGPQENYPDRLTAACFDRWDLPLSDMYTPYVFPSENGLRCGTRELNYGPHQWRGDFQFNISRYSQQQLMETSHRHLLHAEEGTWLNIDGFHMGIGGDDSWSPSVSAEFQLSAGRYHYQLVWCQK
Chain of galactosidase-PAR3 (GPAR3) fusion protein (chain, as listed by the source, chain 2 of 2): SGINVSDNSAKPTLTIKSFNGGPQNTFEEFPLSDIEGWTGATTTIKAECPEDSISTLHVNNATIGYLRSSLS

Chain of GPAR4^R47S activation site mutant fusion protein (chain, as listed by the source R47S, chain 1 of 2): as the sequence (chain, as listed by the source, chain 1 of 2) above, with R47S counted along it
Chain of GPAR4^R47S activation site mutant fusion protein (chain, as listed by the source R47S, chain 2 of 2): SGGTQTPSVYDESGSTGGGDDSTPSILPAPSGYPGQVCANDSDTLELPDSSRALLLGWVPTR
Chain of galactosidase-PAR2 (GPAR2) fusion protein (chain, as listed by the source, chain 1 of 2): as the sequence (chain, as listed by the source, chain 1 of 2) above
Chain of galactosidase-PAR2 (GPAR2) fusion protein (chain, as listed by the source, chain 2 of 2): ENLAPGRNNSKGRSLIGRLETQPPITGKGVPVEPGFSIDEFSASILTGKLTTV
Chain of galactosidase-PAR4 (GPAR4) fusion protein (chain, as listed by the source, chain 1 of 2): as the sequence (chain, as listed by the source, chain 1 of 2) above
Chain of galactosidase-PAR4 (GPAR4) fusion protein (chain, as listed by the source, chain 2 of 2): as the sequence (chain, as listed by the source R47S, chain 2 of 2) above, with S31R counted along it
Chain of galactosidase-PAR1 (GPAR1) fusion protein [β-galactosidase: P00722] (P00722 whole entry, chain 1 of 2, the tested form may be a part): as the sequence (chain, as listed by the source, chain 1 of 2) above
Chain of galactosidase-PAR1 (GPAR1) fusion protein [β-galactosidase: P00722] (chain, as listed by the source, chain 2 of 2): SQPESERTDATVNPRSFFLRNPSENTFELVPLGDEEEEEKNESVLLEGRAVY

Protein	β-Galactosidase release rate (determined in the presence of hirudin) [1]	β-Galactosidase release rate (mmol β-Galactosidase/(molProtease * min)) [2]	β-Galactosidase release rate (mmol β-Galactosidase/(molProtease * min)) [3]	β-Galactosidase release rate (mmol β-Galactosidase/(molProtease * min)) [4]	β-Galactosidase release rate (mmol β-Galactosidase/(molProtease * min)) [5]	β-Galactosidase release rate (mmol β-Galactosidase/(molProtease * min)) [6]	β-Galactosidase release rate (mmol β-Galactosidase/(molProtease * min)) [7]	β-Galactosidase release rate (determined in the presence of hirudin) [8]	β-Galactosidase release rate (mmol β-Galactosidase/(molProtease * min)) [1]	β-Galactosidase release rate (mmol β-Galactosidase/(molProtease * min)) [8]	cleavage efficiency, against GPAR2^R34S [7]	cleavage rate, against trypsin [7]	activity on GPAR3, against thrombin [8]
B1	≦1 * 10^-2 a	≤ 0.01	≤ 0.01	≤ 0.01	≤ 0.01	≤ 0.01	≤ 0.01	≦1 * 10^-2 a	–	–	–	–	–
B2	–	140	93	11	16	12	24	–	78	50	–	–	–
B3	–	≤ 0.01	≤ 0.01	≤ 0.01	≤ 0.01	≤ 0.01	≤ 0.01	–	≤ 0.01	0.03	–	–	–
B4	–	0.29	0.16	0.26	0.35	0.48	0.67	–	4.1	0.34	Plasmin cleaved GPAR2 two times more efficiently than GPAR2^R34S	only at a 560 fold lower rate than trypsin	about 120 times less active than thrombin
